Residue numbers refer to the chain shown, from its start. Each block holds one binder with its values, some of them ahead of it.
Biological target: T1, Histidine-tagged canine PD-1 protein (canine)
T1 sequence: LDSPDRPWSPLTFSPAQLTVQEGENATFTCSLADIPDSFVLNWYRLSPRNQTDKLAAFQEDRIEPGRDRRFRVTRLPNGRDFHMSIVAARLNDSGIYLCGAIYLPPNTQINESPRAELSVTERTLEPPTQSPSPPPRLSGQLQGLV
Assay: SPR (Biacore), dPD-1-His amine-coupled to CM5 chip, antibody injected, 1:1 Langmuir fit

B1: 1B9-H1K1-IgG4 (antibody, V domains shown)
VH: EVQLVQSGAEVKKPGASVKVSCKTSGYTFTSFWMNWVRLAPGAGLDWIGRVDPYDSETHYNQKFKDRVILTVDTSTSTAYMELSSLRAGDIAVYYCATQFGFSWLAYWGQGTLVTVSA
VL: EIVMTQSPGSLAGSAGESVSINCKSSQSLLYSSNQKNYLAWYQQKPGESPKLLIYWASTRESGVPDRFSGSGSGTDFTLTINNLQAEDVGVYYCQQYYSNPYTFGQGTKLEIK
- Kd: 1.07 nM
- koff: 0.000454 s⁻¹
- kon: 424000 M⁻¹ s⁻¹

B5: 1D8-H1K1-dIgG4 (antibody, V domains shown)
VH: EVQLVESGGDLVKPVGSLRLSCVASGFTFNNFGMSWVRQAPGKGLQWVATLSSGSSYTYYSDSVKGRFTISRDNAKNTLYLQMNSLRAEDTAMYYCTRGESRFAYWGQGTLVTVSA
VL: GVVITQDPLSLAVTPGELVTISCRSSKSLLYKDGKTYLNWYLQKPGQTPRLLIYLMSTRASGVSDRFSGSGSGTDFTLKISRVEAEDVGVYYCQQLIEYPLTFGAGTKVELK
- Kd: 4.57 nM
- koff: 0.00309 s⁻¹
- kon: 675000 M⁻¹ s⁻¹

B6: 1D8-H2K1-dIgG4 (antibody, V domains shown)
VH: B5 VH with Q46E
VL: B5 VL
- Kd: 5.36 nM
- koff: 0.00348 s⁻¹
- kon: 650000 M⁻¹ s⁻¹

B7: 1D8-H1K2-dIgG4 (antibody, V domains shown)
VH: B5 VH
VL: B5 VL with Y41F
- Kd: 4.5 nM
- koff: 0.00248 s⁻¹
- kon: 550000 M⁻¹ s⁻¹

B8: 1D8-H2K2-dIgG4 (antibody, V domains shown)
VH: B5 VH with Q46E
VL: B5 VL with Y41F
- Kd: 4.34 nM
- koff: 0.00262 s⁻¹
- kon: 604000 M⁻¹ s⁻¹

Binders with a lower Kd, results first:

- Kd: 0.768 nM
- koff: 0.000454 s⁻¹
- kon: 591000 M⁻¹ s⁻¹
B2: 1B9-H2K1-IgG4 (antibody, V domains shown)
VH: B1 VH with T24A, D46E, V68A
VL: B1 VL

- Kd: 0.745 nM
- koff: 0.00043 s⁻¹
- kon: 577000 M⁻¹ s⁻¹
B3: 1B9-H2K2-IgG4 (antibody, V domains shown)
VH: B1 VH with T24A, D46E, V68A
VL: B1 VL with E1D, G13V, L84V

- Kd: 1.03 nM
- koff: 0.00049 s⁻¹
- kon: 475000 M⁻¹ s⁻¹
B4: 1B9-H1K2-IgG4 (antibody, V domains shown)
VH: B1 VH
VL: B1 VL with E1D, G13V, L84V

- Kd: 0.094 nM
- koff: 0.000135 s⁻¹
- kon: 1.44e+06 M⁻¹ s⁻¹
B9: 1D8-mHvKv-dIgG4 (antibody, V domains shown)
VH: B5 VH with V15G, R19K, V23A, A40N, G42D, G44R, Q46E, R87K, A88S
VL: GVVITQDELSNPVTSGESVSISCRSSKSLLYKDGKTYLNWFLQRPGQSPQLLIYLMSTRASGVSDRFSGSGSGTDFTLEISRVKAEDVGVYYCQQLIEYPLTFGAGTKLELKR

- Kd: 0.29 nM
- koff: 0.000152 s⁻¹
- kon: 525000 M⁻¹ s⁻¹
B10: 4A7-mHvKv-dIgG4 (antibody, V domains shown)
VH: EVQLVESGGDLVKPGGSLKLSCVASGFPFSNFGMSWVRQTPDKRLEWVATISSGSSYSYYSDSVKGRFTISRDNAKNTLFLQMNSLKSEDTAIFYCARGESRFAYWGQGTLVTVSA
VL: B9 VL with G1D, S26N, K32E, K35Q, R82E, K84R

Reference: patent US20220324978A1
